Here are results for eight molecules from paper PMC4360740, “Novel Type II and Monomeric NAD^+ Specific Isocitrate Dehydrogenases: Phylogenetic Affinity, Enzymatic Characterization, and Evolutionary Implication” (Scientific Reports, 2015).

A word on the kcat: it is the number of substrate molecules converted per active site and unit of time at saturation. The kcat/Km is the second-order rate constant that governs catalysis at low substrate concentration. For orientation: stoichiometry N means a count of units in the complex or per binding partner.

The target in series [1] is Campylobacter sp. FOBRC14 isocitrate dehydrogenase (Campylobacter sp. FOBRC14). Briefly: SEC; Superdex 200 10/300 column, 0.05 M potassium phosphate pH 7.0, 0.15 M NaCl, 0.01% sodium azide, flow 0.5 ml/min; mass estimated against protein standards.
Series [2] concerns T1, CaIDH.
T1 construct: gene IDH
To be noted: read-out: NADP^+ / Km; 1.0 mM isocitrate fixed; 35 mM Tris-HCl pH 7.5, 2 mM MgCl2 or MnCl2, 25°C; Methods print the second mutation as Asp594Arg.

Series [3] has as its system NC(=O)c1ccc[n+]([C@@H]2O[C@H](COP(=O)(O)OP(=O)(O)OC[C@H]3O[C@@H](n4cnc5c(N)ncnc54)[C@H](O)[C@@H]3O)[C@@H](O)[C@H]2O)c1. As to the kind of experiment: purified protein. To be noted: 1.0 mM isocitrate fixed, 35 mM Tris-HCl pH 7.5, 2 mM MgCl2 or MnCl2, 25°C, varied: cofactor.
For series [4], the system named is NC(=O)c1ccc[n+]([C@@H]2O[C@H](COP(=O)(O)OP(=O)(O)OC[C@H]3O[C@@H](n4cnc5c(N)ncnc54)[C@H](OP(=O)(O)O)[C@@H]3O)[C@@H](O)[C@H]2O)c1. As to the kind of experiment: purified protein. To be noted: 1.0 mM isocitrate fixed, 35 mM Tris-HCl pH 7.5, 2 mM MgCl2 or MnCl2, 25°C, varied: cofactor.
The test system of series [5] is T1, CaIDH. To be noted: read-out: NAD^+ / Km; 1.0 mM isocitrate fixed; 35 mM Tris-HCl pH 7.5, 2 mM MgCl2 or MnCl2, 25°C; Methods print the second mutation as Asp594Arg.
The target in series [6] is Ostreococcus lucimarinus CCE9901 isocitrate dehydrogenase (Ostreococcus lucimarinus CCE9901). Briefly: MALDI-TOF/TOF mass spectrometry; AB SCIEX MALDI TOF-TOF 5800, linear high mass positive-ion mode, SA matrix, TFA as ionization auxiliary reagent.
The target is the same in series [7]. As to the kind of experiment: SEC; Superdex 200 10/300 column, 0.05 M potassium phosphate pH 7.0, 0.15 M NaCl, 0.01% sodium azide, flow 0.5 ml/min; mass estimated against protein standards.
Substrate in series [8]: NC(=O)c1ccc[n+]([C@@H]2O[C@H](COP(=O)(O)OP(=O)(O)OC[C@H]3O[C@@H](n4cnc5c(N)ncnc54)[C@H](O)[C@@H]3O)[C@@H](O)[C@H]2O)c1
Briefly: purified protein. Type of series: biochemical, Micromonas commoda. To be noted: 1.0 mM isocitrate fixed, 35 mM Tris-HCl pH 7.5, 2 mM MgCl2 or MnCl2, 25°C, varied: cofactor.

Substrate in series [9]: NC(=O)c1ccc[n+]([C@@H]2O[C@H](COP(=O)(O)OP(=O)(O)OC[C@H]3O[C@@H](n4cnc5c(N)ncnc54)[C@H](OP(=O)(O)O)[C@@H]3O)[C@@H](O)[C@H]2O)c1
Briefly: purified protein. Type of series: biochemical, Micromonas commoda. To be noted: 1.0 mM isocitrate fixed, 35 mM Tris-HCl pH 7.5, 2 mM MgCl2 or MnCl2, 25°C, varied: cofactor.

Substrate in series [10]: NC(=O)c1ccc[n+]([C@@H]2O[C@H](COP(=O)(O)OP(=O)(O)OC[C@H]3O[C@@H](n4cnc5c(N)ncnc54)[C@H](O)[C@@H]3O)[C@@H](O)[C@H]2O)c1
Briefly: purified protein. Type of series: biochemical, Ostreococcus sp. 'lucimarinus'. To be noted: 1.0 mM isocitrate fixed, 35 mM Tris-HCl pH 7.5, 2 mM MgCl2 or MnCl2, 25°C, varied: cofactor.

Substrate in series [11]: NC(=O)c1ccc[n+]([C@@H]2O[C@H](COP(=O)(O)OP(=O)(O)OC[C@H]3O[C@@H](n4cnc5c(N)ncnc54)[C@H](OP(=O)(O)O)[C@@H]3O)[C@@H](O)[C@H]2O)c1
As to the kind of experiment: purified protein. To be noted: 1.0 mM isocitrate fixed, 35 mM Tris-HCl pH 7.5, 2 mM MgCl2 or MnCl2, 25°C, varied: cofactor. Type of series: biochemical, Ostreococcus sp. 'lucimarinus'.

Like-named read-outs stand apart in the source and are kept apart here. A value given as a limit tells only on which side of the number the result lay.

Take “Campylobacter sp. FOBRC14 isocitrate dehydrogenase (enzyme)”: the fraction eluting as dimer in [1] is less than 5%.
For the molecule `NC(=O)c1ccc[n+]([C@@H]2O[C@H](COP(=O)(O)OP(=O)(O)OC[C@H]3O[C@@H](n4cnc5c(N)ncnc54)[C@H](OP(=O)(O)O)[C@@H]3O)[C@@H](O)[C@H]2O)c1` [NADP^+], the Km in the series on CaIDH [2] was determined as 11.4 ± 4.6 µM.
Consider CaIDH (Campylobacter sp. FOBRC14), for which, in series [3], the Km stood at 28.9 ± 4.5 µM, the kcat was 7 ± 0.8 s⁻¹ and the kcat/Km was 242000 M⁻¹ s⁻¹. Further, in [4], the Km was found to be 513.2 ± 14.9 µM, the kcat was 1.9 ± 0.1 s⁻¹ and the kcat/Km was found to be 4000 M⁻¹ s⁻¹.
In the case of `NC(=O)c1ccc[n+]([C@@H]2O[C@H](COP(=O)(O)OP(=O)(O)OC[C@H]3O[C@@H](n4cnc5c(N)ncnc54)[C@H](O)[C@@H]3O)[C@@H](O)[C@H]2O)c1` [NAD^+], in the series on CaIDH [5], the Km turned out to be 493 ± 52.5 µM.
Consider “Ostreococcus lucimarinus CCE9901 isocitrate dehydrogenase (enzyme)”, for which the stoichiometry N in series [6] and in [7] was 2 throughout.

B1: MiIDH (Micromonas commoda) (protein)
chain: MAAASAGGKIQAAPMVYVAGEEMTRYTMDLILERWIKPHVDTSAWEFFDLRAKNRDDTEDQVLRDVISAGARLKAIFKEPTITPTADQVKRLGLKKAWGSPNGAMRRGWNGITISRDTIHIDGVELGYKKPVFFERHAVGGEYSAGYKIVGKGKLTTTFVPEAGGEPIVVDDRKITDDLNAVVAYHNPLDNVAHLARIFFGRCLDAGIVPYVVTKKTVFKWQEPFWESMKTVFDAEFKQKFYEKGVMKPGSELVHLLSDAATMKLVVWTDGGFGMAAHNYDGDVLTDELAQVHKSPGFITSNLVGVDDNGTLIKEFEASHGTVTDMDEARLRGEETSLNPLGMVEGLIGAMNHAADVHGGSSGVHPWTGKLRAVIHKLFREGRGTRDLCGAGGLTTEQFIDAVAEEL
notes: full-length synthetic codon-optimised gene in pET-28b(+) NdeI/XhoI, 6xHis-tagged, E. coli Rosetta (DE3); described as homodimeric
Regarding B1, in “purified protein [8]”, the Km was 126 ± 5.3 µM, the kcat was 22.5 ± 2 s⁻¹ and the kcat/Km turned out to be 179000 M⁻¹ s⁻¹. For the same molecule, in the series “purified protein [9]”, the Km was determined as 1827 ± 42.4 µM, the kcat is 1.4 ± 0.2 s⁻¹ and the kcat/Km stood at 800 M⁻¹ s⁻¹.

B2: OlIDH (Ostreococcus lucimarinus CCE9901) (protein)
chain: MSANASKITAAPMVYVRGEEMTAYVMDLIRAKWIEPRVDTTAWREFDLRAKNRDDTEDQVLRDVIEAGKAVKAIFKEPTVTPTADQVKRLGLRKSWGSPNGAMRRGWNGITISRDTIHIDGVELGYKKPVFFERHAVGGEYAAGYKNVGKGTLVTTFTPSEGPDAGKPVEVDSRTITDNEAAVVTYHNPYDNVHELARFFFGRCLEAKITPYVVTKKTVFKWQEPFWQIMKKVFDEEYKSKFVDAGVMKSGDELVHLLSDAATMKLVQWRQGGFGMAAHNYDGDVLTDELAQIHKSPGFITSNLVGVDENGTLIKEFEASHGTVADMDEARLRGEETSLNPLGMVEGLIGAMNHAADVHNVDKERTLAFTAKMRAVIHQLFREGKGTRDLSGPSGLTTEQFVDAVAERL
notes: full-length synthetic codon-optimised gene in pET-28b(+) NdeI/XhoI, 6xHis-tagged, E. coli Rosetta (DE3); about 46 kDa subunit, 415 residues as used in CD calculation; homodimer 93 kDa by MALDI
As to B2, in the series “purified protein [10]”, the Km stood at 136.6 ± 13.6 µM, the kcat is 60.6 ± 3.8 s⁻¹ and the kcat/Km amounted to 444000 M⁻¹ s⁻¹. For the same molecule, in “purified protein [11]”, the Km was 2211 ± 75 µM, the kcat is 10 ± 1.6 s⁻¹ and the kcat/Km is 4500 M⁻¹ s⁻¹.

B3: OlIDH (Ostreococcus lucimarinus CCE9901; D326R/M327H) (protein)
chain: MSANASKITAAPMVYVRGEEMTAYVMDLIRAKWIEPRVDTTAWREFDLRAKNRDDTEDQVLRDVIEAGKAVKAIFKEPTVTPTADQVKRLGLRKSWGSPNGAMRRGWNGITISRDTIHIDGVELGYKKPVFFERHAVGGEYAAGYKNVGKGTLVTTFTPSEGPDAGKPVEVDSRTITDNEAAVVTYHNPYDNVHELARFFFGRCLEAKITPYVVTKKTVFKWQEPFWQIMKKVFDEEYKSKFVDAGVMKSGDELVHLLSDAATMKLVQWRQGGFGMAAHNYDGDVLTDELAQIHKSPGFITSNLVGVDENGTLIKEFEASHGTVARHDEARLRGEETSLNPLGMVEGLIGAMNHAADVHNVDKERTLAFTAKMRAVIHQLFREGKGTRDLSGPSGLTTEQFVDAVAERL
notes: as for B2
As to B3, in “purified protein [10]”, the Km was 2941.3 ± 75.8 µM, the kcat amounted to 29.1 ± 7.9 s⁻¹ and the kcat/Km was 10000 M⁻¹ s⁻¹. Moreover, in the series “purified protein [11]”, the Km was found to be 8.2 ± 1.9 µM, the kcat is 1.8 ± 0.2 s⁻¹ and the kcat/Km worked out at 220000 M⁻¹ s⁻¹.
